According to paper PMC4746701, “Crystal structure of SEL1L: Insight into the roles of SLR motifs in ERAD pathway” (Scientific Reports, 2016):
Where a chain is given by its changes, count along the chain named. In names and notes the source's numbering stands.

B1: GST-HRD1 N-terminal luminal loop (residues 21–42) (domain or fragment, mouse, UniProt Q9DBY1 21-42, looked up)
chain: HAYYLKHQFYPTVVYLTKSSPS
notes: HRD1 E3 ubiquitin ligase, mouse, N-terminal luminal loop, residues 21-42; also called N-terminal luminal loop of HRD1; HRD1 luminal fragment GST-fusion protein; source: GST-fusion protein immobilised on glutathione sepharose 4B beads
B2: SEL1L^cent (mouse SEL1L central domain, SLR motifs 5 to 9, residues 348–533) (domain or fragment, Mus musculus, UniProt Q9Z2G6 348-533, looked up)
chain: NSGMLEEDLIQYYQFLAEKGDVQAQVGLGQLHLHGGRGVEQNHQRAFDYFNLAANAGNSHAMAFLGKMYSEGSDIVPQSNETALHYFKKAADMGNPVGQSGLGMAYLYGRGVQVNYDLALKYFQKAAEQGWVDGQLQLGSMYYNGIGVKRDYKQALKYFNLASQGGHILAFYNLAQMHASGTGVMR
notes: Forms a homodimer (crystal, cross-linking, AUC, SEC); also called wild-type SEL1L^cent; source: purified
B3: SEL1L^cent Q460A (negative control point mutant) (domain or fragment, Mus musculus, UniProt Q9Z2G6 348-533, looked up)
chain: B2 chain with Q113A
notes: source: purified
B4: SEL1L^cent G512A (domain or fragment, Mus musculus, UniProt Q9Z2G6 348-533, looked up)
chain: B2 chain with G165A
notes: source: purified
B5: SEL1L^cent G513A (domain or fragment, Mus musculus, UniProt Q9Z2G6 348-533, looked up)
chain: B2 chain with G166A
notes: source: purified
B6: SEL1L^long (mouse SEL1L residues 337–554) (domain or fragment, Mus musculus, UniProt Q9Z2G6 337-554, looked up)
chain: RLPDEVENPGMNSGMLEEDLIQYYQFLAEKGDVQAQVGLGQLHLHGGRGVEQNHQRAFDYFNLAANAGNSHAMAFLGKMYSEGSDIVPQSNETALHYFKKAADMGNPVGQSGLGMAYLYGRGVQVNYDLALKYFQKAAEQGWVDGQLQLGSMYYNGIGVKRDYKQALKYFNLASQGGHILAFYNLAQMHASGTGVMRSCHTAVELFKNVCERGRWSER
notes: SEL1L, Mus musculus (790 amino acids), residues 337-554; also called the central region of SEL1L, residues 337–554; source: purified

Columns and labels:
[1] = target: T1, MBP-SEL1L SLR-C (SLR motifs 10 and 11, residues 639–719) (Mus musculus, UniProt Q9Z2G6 639-719); assay: pull-down; 400 μg GST-HRD1 luminal fragment on glutathione sepharose 4B beads, 100 μg MBP-SEL1L protein; 150 mM NaCl, 25 mM sodium phosphate pH 7.5, 5 mM DTT; 4 °C, 15 minutes; SDS-PAGE, Coomassie; settings: both partners purified
T1 construct: SEL1L, Mus musculus, residues 639-719 (SLR-C); source: purified; not shown: MBP, N-terminal, kept
T1 sequence (Q9Z2G6 639-719): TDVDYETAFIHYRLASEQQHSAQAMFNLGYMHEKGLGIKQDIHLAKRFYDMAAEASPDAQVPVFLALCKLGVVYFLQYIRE

[2] = target: the molecule itself; assay: cross-linking; glutaraldehyde (0.005%) or dimethyl suberimidate (0.3 mM), products analysed by SDS-PAGE
[3] = target: the molecule itself; assay: SEC; Superdex 200; 25 mM Tris, 150 mM NaCl, 5 mM DTT, pH 7.5

| Binder | stoichiometry N [2] | binding result [3] | also measured |
| --- | --- | --- | --- |
| B1 | – | – | binding result [1]: binds |
| B2 | 2 | – | – |
| B3 | – | binds | – |
| B4 | – | binds | – |
| B5 | – | binds | – |
| B6 | 2 | – | – |
